The text below walks through data of patent US20140304847.

One data set relates to ZFN-Rab38-L (artificial). In words: cell_activity. The settings on record: with ZFN-Rab38-R; 3 of 52 mice from mRNA-injected zygotes with Rab38-cht vector, no NHEJ inhibition.
The next data set concerns ZFN-Rab38-R (artificial). In words: cell_activity. The settings on record: with ZFN-Rab38-L; 3 of 52 mice from mRNA-injected zygotes with Rab38-cht vector, no NHEJ inhibition.

In turn, “ATGCAGACACCTCACAAGGAGCACCTGTACAAGCTGCTGGTGATCGGCGACCTGGGTGTGGGCAAGACCAGCATTATCAAGCGCTATGTGCACCAAAACTTCTCCTCGCACTACCGGGCCACCATTGGTGTGGACTTCGCGCTGAAGGTGCTCCACTGGGACCCAGAGACGGTGGTGCGCTTGCAGCTCTGGGACATTGCTG (double strand) [Rab38 exon 1 ZFN-L half-site]” came in with an activity (% targeted mice) with ZFN-Rab38-L (artificial) of 5.

Turning to “ATGCAGACACCTCACAAGGAGCACCTGTACAAGCTGCTGGTGATCGGCGACCTGGGTGTGGGCAAGACCAGCATTATCAAGCGCTATGTGCACCAAAACTTCTCCTCGCACTACCGGGCCACCATTGGTGTGGACTTCGCGCTGAAGGTGCTCCACTGGGACCCAGAGACGGTGGTGCGCTTGCAGCTCTGGGACATTGCTG (double strand) [Rab38 exon 1 ZFN-R half-site]”, in the data set with ZFN-Rab38-R (artificial), the activity (% targeted mice) turned out to be 5.
